Assay results taken from patent publication US7785835.

Assays:
[1] = target: vitronectin (UniProt P04004); assay: competition binding assay, displacement of [^125I]-IGF-II from VN-coated wells (300 ng/well)
[2] = target: vitronectin (UniProt P04004); assay: cell-based or functional assay

Sequence of insulin-like growth factor-II (P01344 25-91 limits assumed): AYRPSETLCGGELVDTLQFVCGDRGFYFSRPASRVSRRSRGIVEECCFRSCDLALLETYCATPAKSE
Sequence of vitronectin (P04004 20-478 limits assumed): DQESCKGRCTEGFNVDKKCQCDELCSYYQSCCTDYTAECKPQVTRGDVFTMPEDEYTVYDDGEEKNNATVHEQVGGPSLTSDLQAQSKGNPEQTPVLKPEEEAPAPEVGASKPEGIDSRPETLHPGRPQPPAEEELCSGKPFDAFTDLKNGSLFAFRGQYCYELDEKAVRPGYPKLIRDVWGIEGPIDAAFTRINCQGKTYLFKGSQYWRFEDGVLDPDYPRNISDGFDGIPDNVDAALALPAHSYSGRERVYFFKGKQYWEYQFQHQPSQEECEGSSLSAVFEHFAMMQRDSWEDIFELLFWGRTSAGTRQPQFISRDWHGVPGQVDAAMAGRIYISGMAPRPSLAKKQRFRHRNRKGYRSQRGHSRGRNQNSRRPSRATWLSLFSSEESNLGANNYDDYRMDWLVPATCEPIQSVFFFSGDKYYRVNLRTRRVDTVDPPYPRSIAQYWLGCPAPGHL

- IC50 [1]: 9.6 nM
- incorporation of [^3H]-leucine into protein in human keratinocytes, % above control; 3 ng IGF-II pre-bound to VN coated wells [2]: 19%
- incorporation of [^3H]-leucine into protein in human keratinocytes, % above control; 10 ng IGF-II pre-bound to VN coated wells [2]: 29%
- incorporation of [^3H]-leucine into protein in human keratinocytes, % above control; 30 ng IGF-II pre-bound to VN coated wells [2]: 39%
- incorporation of [^3H]-leucine into protein in human keratinocytes, % above control; 100 ng IGF-II pre-bound to VN coated wells [2]: 51%
- incorporation of [^3H]-leucine into protein in human keratinocytes, % above control; 300 ng IGF-II pre-bound to VN coated wells [2]: 70%
- incorporation of [^3H]-leucine into protein in human keratinocytes, % above control; 1000 ng IGF-II pre-bound to VN coated wells [2]: 101%
- synergistic effect in protein synthesis above the calculated additive effect of VN alone and IGF-II alone [2]: 5 to 46%
Substance: insulin-like growth factor-II (from UniProt P01344 25-91) (ligand)
